The experiment has as its target T1, HsTHUMPD2 (purified) (human, UniProt Q9BTF0-1 1-503).
T1 sequence (looked up): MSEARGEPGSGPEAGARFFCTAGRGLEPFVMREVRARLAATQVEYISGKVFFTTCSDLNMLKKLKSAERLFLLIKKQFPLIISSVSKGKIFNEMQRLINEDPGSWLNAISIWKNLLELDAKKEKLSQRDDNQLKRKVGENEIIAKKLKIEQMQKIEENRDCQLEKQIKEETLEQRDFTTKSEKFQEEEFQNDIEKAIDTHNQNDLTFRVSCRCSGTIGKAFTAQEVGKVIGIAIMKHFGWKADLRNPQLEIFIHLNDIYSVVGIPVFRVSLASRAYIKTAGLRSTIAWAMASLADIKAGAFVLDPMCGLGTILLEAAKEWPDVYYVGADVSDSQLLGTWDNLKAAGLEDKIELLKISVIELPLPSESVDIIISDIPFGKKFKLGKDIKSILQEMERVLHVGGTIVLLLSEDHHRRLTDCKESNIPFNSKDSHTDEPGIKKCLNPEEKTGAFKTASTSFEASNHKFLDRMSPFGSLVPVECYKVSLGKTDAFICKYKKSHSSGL
The experiment is described as follows: SEC. (In general: In gel filtration, larger molecules generally elute earlier.)

B1: HsTRMT112 (purified) (natural protein, human, UniProt Q9UI30-1 1-125, looked up)
chain: MKLLTHNLLSSHVRGVGSRGFPLRLQATEVRICPVEFNPNFVARMIPKVEWSAFLEAADNLRLIQVPKGPVEGYEENEEFLRTMHHLLLEVEVIEGTLQCPESGRMFPISRGIPNMLLSEEETES
Consider B1, for which the binding result is “binds”.

The values above are taken from article doi:10.1101/2023.06.17.545410 (bioRxiv, 2023).
